For 1 molecule, stoichiometry N (OsFKBP12 per OsTORKD) and Kd results are on record in article PMC11732086 (2024).

Experiment [1] concerns the target T1, MBP-OsTORKD (rice, UniProt Q0DJS1 1896-2465).
T1 chain: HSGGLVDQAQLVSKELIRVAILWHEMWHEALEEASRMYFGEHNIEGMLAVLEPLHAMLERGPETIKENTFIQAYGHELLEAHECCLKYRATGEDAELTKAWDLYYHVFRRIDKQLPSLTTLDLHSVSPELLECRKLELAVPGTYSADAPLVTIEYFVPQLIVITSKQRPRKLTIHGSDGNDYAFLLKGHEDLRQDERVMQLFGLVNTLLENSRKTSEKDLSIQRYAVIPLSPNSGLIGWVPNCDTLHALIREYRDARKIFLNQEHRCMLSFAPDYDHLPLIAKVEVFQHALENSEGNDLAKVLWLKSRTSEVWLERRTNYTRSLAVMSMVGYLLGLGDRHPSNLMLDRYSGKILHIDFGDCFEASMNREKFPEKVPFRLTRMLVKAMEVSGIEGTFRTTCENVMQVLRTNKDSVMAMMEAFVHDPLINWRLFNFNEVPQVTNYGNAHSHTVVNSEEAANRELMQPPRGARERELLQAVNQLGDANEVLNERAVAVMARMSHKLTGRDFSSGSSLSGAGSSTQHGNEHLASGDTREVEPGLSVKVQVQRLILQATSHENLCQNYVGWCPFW
The experiment can be described thus: ITC; His-OsFKBP12 in the syringe (10 mM) titrated into MBP-OsNIN8, MBP-OsNIN8m or MBP-OsTORKD in the cell (0.1 mM); 25°C; 20 injections of 2.5 μL, interval 200 s; proteins dialysed in 50 mM potassium phosphate pH 6.4. (In general: Isothermal titration calorimetry measures the heat released or taken up as one component is titrated into another.)

In experiment [2] the target is T1, MBP-OsTORKD. The experiment can be described thus: ITC.

B1: His-OsFKBP12 (natural protein)
chain: MGFEKTILKAGTGPKPVKGQKVTVHCTGFGKDNDLAKKFWSTKDAGQEPFSFNIGQGSVIKGWDEGVMTMQVGEVARIQCTPDYAYGASGFPAWGIRPNSVLVFEIEVLSAQ
In the case of B1, the stoichiometry N (OsFKBP12 per OsTORKD) in experiment [1] stood at 6. For the same molecule, in experiment [2], the Kd (commonly the constant that tells how readily two partners part at equilibrium) was 81.8 µM.
